Reference: article PMC10621011 (ACS Omega, 2023)
Where “and” joins values, the source holds several entries; their conditions need not be identical. Equal entries are not always repeated.

Assays:
[1] = target: PD-L1 on H1975 human lung adenocarcinoma cells (human (on H1975 cells), UniProt Q9NZQ7 19-290); experiment: ELISA
[2] = target: Human PD-L1 mouse Fc fusion protein (human, UniProt Q9NZQ7 19-238); experiment: ELISA
Chain of Human PD-L1 mouse Fc fusion protein (Q9NZQ7 19-238): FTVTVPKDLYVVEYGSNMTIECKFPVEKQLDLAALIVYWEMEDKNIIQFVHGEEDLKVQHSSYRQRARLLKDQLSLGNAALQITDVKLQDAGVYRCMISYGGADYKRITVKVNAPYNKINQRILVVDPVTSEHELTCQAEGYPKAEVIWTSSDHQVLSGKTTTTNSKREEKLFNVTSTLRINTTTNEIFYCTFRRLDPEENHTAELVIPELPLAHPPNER

Chain of PD-L1 on H1975 human lung adenocarcinoma cells (Q9NZQ7 19-290): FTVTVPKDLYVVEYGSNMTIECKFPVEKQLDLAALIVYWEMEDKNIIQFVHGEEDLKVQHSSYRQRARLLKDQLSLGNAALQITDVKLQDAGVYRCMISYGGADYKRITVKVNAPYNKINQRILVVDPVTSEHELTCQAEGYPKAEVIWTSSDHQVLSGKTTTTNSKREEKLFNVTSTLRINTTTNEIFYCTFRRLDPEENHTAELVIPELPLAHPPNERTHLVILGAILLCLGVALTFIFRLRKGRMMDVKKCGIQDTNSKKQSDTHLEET

EC50 [1]: ~0.2 nM and 0.1 nM and 0.13 nM
EC50 [2]: 0.02 nM
B1: mutPD-1Ig (Fc fusion, human, UniProt Q15116 21-161, looked up)
chain: PGWFLDSPDRPWNPPTFSPALLVVTEGDNATFTCSFSNTSESFVLNWYRMSPSNQTDKLAAFPEDRSQPGQDCRFRVTQLPNGRDFHMSVVRARRNDSGTYLCSAISLAPYIQIKESLRAELRVTERRAEVPTAHPSPSPR
